# Data from PMC7117682 (2020).
# Target: CD47 naturally expressed on CD47(+) Jurkat T lymphoma cells (human (endogenous in Jurkat), UniProt Q08722 19-323)
# Experiment: FACS
# Chain of CD47 naturally expressed on CD47(+) Jurkat T lymphoma cells (Q08722 19-323): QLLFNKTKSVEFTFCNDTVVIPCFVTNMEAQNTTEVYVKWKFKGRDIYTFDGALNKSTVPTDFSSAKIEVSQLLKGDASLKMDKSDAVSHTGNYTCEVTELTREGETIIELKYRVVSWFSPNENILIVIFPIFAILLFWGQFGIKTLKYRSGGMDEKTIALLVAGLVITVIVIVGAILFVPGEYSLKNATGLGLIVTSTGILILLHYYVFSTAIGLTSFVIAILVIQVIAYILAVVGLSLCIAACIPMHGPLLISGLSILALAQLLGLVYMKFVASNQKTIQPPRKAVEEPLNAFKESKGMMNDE
binder,measurement,value
"SIRPα-Avi-biotin (soluble, biotin-conjugated SIRPα d1 construct; allelic variant not stated for the experiment) (domain or fragment, biotin (biotin-conjugated, SIRPα-Avi-biotin)) EELQVIQPDKSVLVAAGETATLRCTATSLIPVGPIQWFRGAGPGRELIYNQKEGHFPRVTTVSDLTKRNNMDFSIRIGNITPADAGTYYCVKFRKGSPDDVEFKSG",EC50,2 µM
